Measurements reported in publication PMC2883070 (Molecular Microbiology, 2010).

T1: His-FliM (E. coli W3110, UniProt P06974 1-334)
T1 sequence (looked up): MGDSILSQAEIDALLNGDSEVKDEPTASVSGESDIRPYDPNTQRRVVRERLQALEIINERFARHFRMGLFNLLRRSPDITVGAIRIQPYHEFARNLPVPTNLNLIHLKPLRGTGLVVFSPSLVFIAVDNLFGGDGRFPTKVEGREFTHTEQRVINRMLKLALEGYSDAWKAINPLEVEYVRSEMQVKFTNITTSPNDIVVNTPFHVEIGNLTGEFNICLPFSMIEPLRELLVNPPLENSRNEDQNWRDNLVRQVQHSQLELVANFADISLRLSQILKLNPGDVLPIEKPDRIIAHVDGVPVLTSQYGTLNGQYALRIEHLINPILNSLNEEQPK


Biological target: T1, His-FliM
Test: SPR

Row | Kd [µM] | Binder
1 | 1.63 | CheY-His (natural protein, E. coli W3110) ADKELKFLVVDDFSTMRRIVRNLLKELGFNNVEEAEDGVDALNKLQAGGYGFVISDWNMPNMDGLELLKTIRADGAMSALPVLMVTAEAKKENIIAAAQAGASGYVVKPFTAATLEEKLNKIFEKLGM
2 | 9.4 | AcCheY-His (natural protein, E. coli W3110, acetyl-lysine at 91 and 109 (found by LC-MS/MS)) ADKELKFLVVDDFSTMRRIVRNLLKELGFNNVEEAEDGVDALNKLQAGGYGFVISDWNMPNMDGLELLKTIRADGAMSALPVLMVTAEAKKENIIAAAQAGASGYVVKPFTAATLEEKLNKIFEKLGM
